Molecular target: T1, human TIM-3 (T Cell Immunoglobulin and Mucin Domain-3) (human, UniProt Q8TDQ0 22-301)
T1 construct: The occupancy sentence names neither the receptor nor its form; also called HAVCR2
T1 sequence: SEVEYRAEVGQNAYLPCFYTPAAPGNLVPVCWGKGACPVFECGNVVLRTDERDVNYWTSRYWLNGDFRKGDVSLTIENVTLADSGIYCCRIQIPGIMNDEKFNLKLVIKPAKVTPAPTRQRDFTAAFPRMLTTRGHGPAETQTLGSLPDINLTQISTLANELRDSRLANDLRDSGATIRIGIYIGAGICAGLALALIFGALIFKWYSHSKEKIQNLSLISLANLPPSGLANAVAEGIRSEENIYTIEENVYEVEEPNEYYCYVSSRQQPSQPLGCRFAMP
Assay: receptor occupancy in subjects of a corresponding Phase 1 study (method not described)

binding result: binds
B1: cobolimab (antibody, human IgG4 S228P, kappa, V domains shown)
VH: EVQLLESGGGLVQPGGSLRLSCAAASGFTFSSYDMSWVRQAPGKGLDWVSTISGGGTYTYYQDSVKGRFTISRDNSKNTLYLQMNSLRAEDTAVYYCASMDYWGQGTTVTVSS
VL: DIQMTQSPSSLSASVGDRVTITCRASQSIRRYLNWYHQKPGKAPKLLIYGASTLQSGVPSRFSGSGSGTDFTLTISSLQPEDFAVYYCQQSHSAPLTFGGGTKVEIKR
notes: also called Anti-TIM3

Reference: US20230131598A1 (GlaxoSmithKline, published 2023)
